T1: human SLC34A2 (human, UniProt O95436 1-690)
T1 construct: whole, on cells; also called human solute carrier 34 A2; NaPi2b
T1 sequence (looked up): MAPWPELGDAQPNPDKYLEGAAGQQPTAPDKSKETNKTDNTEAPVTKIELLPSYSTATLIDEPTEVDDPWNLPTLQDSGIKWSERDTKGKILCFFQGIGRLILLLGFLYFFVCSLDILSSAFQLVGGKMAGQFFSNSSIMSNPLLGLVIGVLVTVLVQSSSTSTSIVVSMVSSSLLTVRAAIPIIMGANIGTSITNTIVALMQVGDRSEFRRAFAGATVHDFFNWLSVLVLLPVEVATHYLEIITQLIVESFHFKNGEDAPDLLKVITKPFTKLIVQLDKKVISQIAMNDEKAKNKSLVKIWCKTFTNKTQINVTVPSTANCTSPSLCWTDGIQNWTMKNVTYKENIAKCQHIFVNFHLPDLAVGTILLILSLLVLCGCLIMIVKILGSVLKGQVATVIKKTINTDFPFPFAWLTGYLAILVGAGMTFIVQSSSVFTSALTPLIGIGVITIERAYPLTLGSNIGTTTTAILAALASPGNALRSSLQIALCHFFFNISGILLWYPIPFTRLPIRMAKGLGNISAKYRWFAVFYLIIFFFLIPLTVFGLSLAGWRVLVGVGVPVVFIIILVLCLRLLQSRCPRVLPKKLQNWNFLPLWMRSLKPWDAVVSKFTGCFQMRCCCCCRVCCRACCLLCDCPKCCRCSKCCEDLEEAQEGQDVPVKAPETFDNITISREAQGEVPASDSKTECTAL


Legend:
human SLC34A2 [1] = target: T1, human SLC34A2; experiment: FACS, HEK293/human SLC34A2 cells
Procedure: (§1) Briefly, OVCAR3 cells or HEK293 cells expressing human SLC34A2 were incubated with chimeric antibodies (from 200 nM, 4 folds dilution, 8 points). After incubation at 4° C. for 60 minutes, the cells were washed with FACS buffer twice, then stained with fluorescent conjugated secondary antibody at 4° C. for 30 minutes. After that the cells were washed twice and analyzed by flow cytometry.

human SLC34A2 [2] = target: T1, human SLC34A2; experiment: FACS, OVCAR3 cells
Procedure: In this example, cell based binding of chimeric antibodies (hIgG1) prepared from the murine antibodies on human SLC34A2 expressing cells were assessed using flow cytometry.
as §1

human SLC34A2 [3] = target: T1, human SLC34A2; experiment: FACS, OVCAR3 cells; remark: listed apart in the source

EC50 (human SLC34A2 [1]) [nM] | Top (MFI) (human SLC34A2 [1]) | EC50 (human SLC34A2 [2]) [nM] | Top (MFI) (human SLC34A2 [2]) | EC50 (human SLC34A2 [3]) [nM] | Top (MFI) (human SLC34A2 [3]) | Binder
1.72 | 109000 | 1.68 | 39600 |  |  | xi7G10E11 hIgG1 (antibody, V domains shown, chimeric, hIgG1) VH: DVKLVESGGGLIKLGGSLKLSCAASGFTFSGYYMSWFRQTPEKRLELVAVINSNGGSTYYAVTVKGRFTISRDNAKNTLYLQMSSLKSEDTALYYCARHEGSQAWFAHWGQGTLVTVSA VL: DIVMTQSHKFMSTSVGDRVSITCKASQDVTTAVAWYQQKPGQSPKLLIYWASTRHTGVPDRFTGSGSGTDYTLTISSVQAEDLALYYCQQHHSTPLTFGAGTKLELK
2.82 | 107000 | 4.67 | 41000 |  |  | xi67C9G11 hIgG1 (antibody, V domains shown, chimeric, hIgG1) VH: DVKLVESGGGLVKLGGSLKLSCAASGFTFSSYFMSWIRQTPEKRVDLVAVINSNGGSTYSPDTVKGRFTISRDNAKNTLYLQMTSLKSEDTALYYCARHFYSYDGAWFPYWGQGTLVTVSA VL: DIVMTQSHKFMSTLVGDRVSITCKASQDVSTSVAWYQQKPGQSPKLLIYWASTRHTGVPDRFTGSGSGTDFTLTISSVQAEDLALYYCQQHHSTPITFGVGTKLELK
2.51 | 106000 | 9.06 | 42500 |  |  | xi25B11B9 hIgG1 (antibody, V domains shown, chimeric, hIgG1) VH: DVKLVESGGGLVRLGGSLKLSCAASGFTFSSHYMSWVRQTPKKRLELVATINSSGGNTYYPDTVKGRFTISRDNARNTLFLQMTSLKSEDTALYYCARQPINTVAYFDYWGQGTTLTVSS VL: DIVMTQSHEFMSTSVGARVSITCKASQDLTTAVAWYQQKPGQSPKLLIYWASTRHIGVPDRFTGSGSGADYTLTISSVQAEDLALYYCQQYHSTPLTFGAGTKLELK
 |  |  |  | 36.8 | 34600 | 63A11D5B4.p1.z6 hIgG1 (antibody, V domains shown, humanized hIgG1) VH: QVQLVQSGAEVKKPGASVKVSCKTSGYTFITYNMHWVRQAPGQGLEWIGAIYPGSGDTSYNQKFKGRVTMTADTSTSTVYMELSSLRSEDTAVYYCSISTIITTGAVDYWGQGTLVTVSS VL: DIQMTQSPSSLSTSVGDRVTITCKASQDVGTAVAWYQQKPGKSPKLLIYWTSTRHTGVPSRFSGSGSGTDFTLIISSLQPEDVATYYCQQYSRIPLTFGGGTKVEIK
 |  |  |  | 16.4 | 32600 | 63A11D5B4.p1.z13 hIgG1 (antibody, V domains shown, humanized hIgG1) VH: QVQLQQSGAEVVKPGASVKMSCKTSGYTFITYNMHWVKQAPGQGREWIGAIYPGSGDTSYNQKFKGRATLTADKSTSTAYMELSSLRSEDTAVYYCSISTIITTGAVDYWGQGTSVTVSS VL: DIQMTQSPSSLSASVGDRVTITCKASQDVGTAVAWYQQKPGKVPKLLIYWTSTRHTGVPSRFSGSGSGTDFTLTISSLQPEDVATYYCQQYSRIPLTFGGGTKVEIK
 |  |  |  | 17.9 | 28600 | 63A11D5B4.p1.z3 hIgG1 (antibody, V domains shown, humanized hIgG1) VH: QVQLVQSGAEVKKPGASVKVSCKASGYTFITYNMHWVRQAPGQGLEWMGAIYPGSGDTSYNQKFKGRVTMTRDTSTSTVYMELSSLRSEDTAVYYCASSTIITTGAVDYWGQGTLVTVSS VL: DIQMTQSPSSLSTSVGDRVTITCKASQDVGTAVAWYQQKPGQSPKLLIYWTSTRHTGVPDRFSGSGSGTDFTLIIRSLQPEDVATYFCQQYSRIPLTFGGGTKVEIK
 |  |  |  | 16.1 | 32600 | 63A11D5B4.p1.z14 hIgG1 (antibody, V domains shown, humanized hIgG1) VH: QVQLQQSGAEVVKPGASVKMSCKTSGYTFITYNMHWVKQAPGQGREWIGAIYPGSGDTSYNQKFKGRATLTADKSTSTAYMELSSLRSEDTAVYYCSISTIITTGAVDYWGQGTSVTVSS VL: DIQMTQSPSSLSTSVGDRVTITCKASQDVGTAVAWYQQKPGKSPKLLIYWTSTRHTGVPSRFSGSGSGTDFTLIISSLQPEDVATYYCQQYSRIPLTFGGGTKVEIK
 |  |  |  | 11.7 | 31700 | 63A11D5B4.p1.z12 hIgG1 (antibody, V domains shown, humanized hIgG1) VH: QVQLVQSGAEVVKPGASVKMSCKTSGYTFITYNMHWVRQAPGQGLEWIGAIYPGSGDTSYNQKFKGRVTLTADKSTSTAYMELSSLRSEDTAVYYCSISTIITTGAVDYWGQGTLVTVSS VL: DIVMTQSPSSLSTSVGDRVTITCKASQDVGTAVAWYQQKPGQSPKLLIYWTSTRHTGVPDRFTGSGSGTDFTLIIRSLQPEDVATYFCQQYSRIPLTFGSGTKVEIK
 |  |  |  | 14.2 | 27900 | 63A11D5B4.p1.z8 hIgG1 (antibody, V domains shown, humanized hIgG1) VH: QVQLVQSGAEVKKPGASVKVSCKTSGYTFITYNMHWVRQAPGQGLEWIGAIYPGSGDTSYNQKFKGRVTMTADTSTSTVYMELSSLRSEDTAVYYCSISTIITTGAVDYWGQGTLVTVSS VL: DIVMTQSPSSLSTSVGDRVTITCKASQDVGTAVAWYQQKPGQSPKLLIYWTSTRHTGVPDRFTGSGSGTDFTLIIRSLQPEDVATYFCQQYSRIPLTFGSGTKVEIK
 |  |  |  | 10.3 | 27700 | 63A11D5B4.p1.z11 hIgG1 (antibody, V domains shown, humanized hIgG1) VH: QVQLVQSGAEVVKPGASVKMSCKTSGYTFITYNMHWVRQAPGQGLEWIGAIYPGSGDTSYNQKFKGRVTLTADKSTSTAYMELSSLRSEDTAVYYCSISTIITTGAVDYWGQGTLVTVSS VL: DIQMTQSPSSLSTSVGDRVTITCKASQDVGTAVAWYQQKPGQSPKLLIYWTSTRHTGVPDRFSGSGSGTDFTLIIRSLQPEDVATYFCQQYSRIPLTFGGGTKVEIK
 |  |  |  | 61.1 | 41000 | 63A11D5B4.p1.z7 hIgG1 (antibody, V domains shown, humanized hIgG1) VH: QVQLVQSGAEVKKPGASVKVSCKTSGYTFITYNMHWVRQAPGQGLEWIGAIYPGSGDTSYNQKFKGRVTMTADTSTSTVYMELSSLRSEDTAVYYCSISTIITTGAVDYWGQGTLVTVSS VL: DIQMTQSPSSLSTSVGDRVTITCKASQDVGTAVAWYQQKPGQSPKLLIYWTSTRHTGVPDRFSGSGSGTDFTLIIRSLQPEDVATYFCQQYSRIPLTFGGGTKVEIK
 |  |  |  | 19.6 | 28000 | 63A11D5B4.p1.z1 hIgG1 (antibody, V domains shown, humanized hIgG1) VH: QVQLVQSGAEVKKPGASVKVSCKASGYTFITYNMHWVRQAPGQGLEWMGAIYPGSGDTSYNQKFKGRVTMTRDTSTSTVYMELSSLRSEDTAVYYCASSTIITTGAVDYWGQGTLVTVSS VL: DIQMTQSPSSLSASVGDRVTITCKASQDVGTAVAWYQQKPGKVPKLLIYWTSTRHTGVPSRFSGSGSGTDFTLTISSLQPEDVATYYCQQYSRIPLTFGGGTKVEIK
 |  |  |  | 18.1 | 29000 | 63A11D5B4.p1.z4 hIgG1 (antibody, V domains shown, humanized hIgG1) VH: QVQLVQSGAEVKKPGASVKVSCKASGYTFITYNMHWVRQAPGQGLEWMGAIYPGSGDTSYNQKFKGRVTMTRDTSTSTVYMELSSLRSEDTAVYYCASSTIITTGAVDYWGQGTLVTVSS VL: DIVMTQSPSSLSTSVGDRVTITCKASQDVGTAVAWYQQKPGQSPKLLIYWTSTRHTGVPDRFTGSGSGTDFTLIIRSLQPEDVATYFCQQYSRIPLTFGSGTKVEIK
 |  |  |  | 20.6 | 28700 | 63A11D5B4.p1.z2 hIgG1 (antibody, V domains shown, humanized hIgG1) VH: QVQLVQSGAEVKKPGASVKVSCKASGYTFITYNMHWVRQAPGQGLEWMGAIYPGSGDTSYNQKFKGRVTMTRDTSTSTVYMELSSLRSEDTAVYYCASSTIITTGAVDYWGQGTLVTVSS VL: DIQMTQSPSSLSTSVGDRVTITCKASQDVGTAVAWYQQKPGKSPKLLIYWTSTRHTGVPSRFSGSGSGTDFTLIISSLQPEDVATYYCQQYSRIPLTFGGGTKVEIK
 |  |  |  | 12.3 | 29800 | 63A11D5B4.p1.z10 hIgG1 (antibody, V domains shown, humanized hIgG1) VH: QVQLVQSGAEVVKPGASVKMSCKTSGYTFITYNMHWVRQAPGQGLEWIGAIYPGSGDTSYNQKFKGRVTLTADKSTSTAYMELSSLRSEDTAVYYCSISTIITTGAVDYWGQGTLVTVSS VL: DIQMTQSPSSLSTSVGDRVTITCKASQDVGTAVAWYQQKPGKSPKLLIYWTSTRHTGVPSRFSGSGSGTDFTLIISSLQPEDVATYYCQQYSRIPLTFGGGTKVEIK
378 | 128000 | 408 | 29500 |  |  | xi62C10B3D2 hIgG1 (antibody, V domains shown, chimeric, hIgG1) VH: QVHQQQSGPELVKPGASVRISCKASGYTFTSYYIHWVKQRPGQGLEWIGCIYPGNLFTKYNEKFKDKATLTADTSSTTAYMHLSSLTSEDSAVYFCARFLNWNAWYFDVWGAGTTVSVSS VL: DVLMTQTPLSLPVSLGDQASISCRSSQSIEHSNGNTNLEWYLQKPGQSPRLLIYKVSNRFSGVPDRFSGSGSGTDFTLKITGVEAEDLGVYYCFQGSHFPWTFGGGTKLEIK

— patent publication US20240301052A1 (LANOVA MEDICINES DEVELOPMENT, published 2024)
